Columns and labels:
hPDE5 mutants [1] = molecular target: T1, hPDE5 mutants (Homo sapiens, UniProt O76074); experiment: GFP FACS analysis of hPDE5 mutant library clones in NIH3T3 cell pools; details: experiment 1; for Stabilization ratio: GFP intensity 10 μM vardenafil vs DMSO; for Destabilizing mutation co-efficient: GFP intensity mutant vs PDE5 wildtype construct in absence of ligand; for MFI 10 μM VDF / MFI DMSO: GFP, NIH3T3 cell pools; for MFI 10 μM VDF: 10 μM vardenafil 24 hr; for MFI DMSO: no ligand (DMSO)
Experimental: These constructs were packaged into lentivirus, transduced into NIH3T3 cells and select stable cell pools were derived as described below. […] Lentiviral stocks were used for transduction of NIH3T3 cells and subsequent cell pool selection. The day before transduction, NIH3T3 cells (1.8×10^6) were seeded in a T-25 flask and allowed to reach 60-70% confluency (˜1 day). The growth medium in the T-25 flask was then replaced with 1 mL virus (quickly thawed in a 37° C. water bath) and 5 μg/mL polybrene. […] Transduction medium was removed the following day and replaced with 5 mL fresh medium. At 48 hr after transduction, the medium was replaced with media containing 1 μg/mL puromycin. This puromycin medium was replaced every 3-4 days until cell pools were established (˜2 weeks).
The mean fluorescence intensity (MFI) of GFP at 100 μM concentration treatment was set as 100% hPDE5 stabilization effect (HPE), while DMSO treatment was set as 0% effect (ZPE) of hPDE5 stabilization. The effect of the compound on hPDE5 stabilization was calculated based on the following formula: % PDE5 stabilization effect=(MFI-ZPE)/(HPE-ZPE)×100.
Plots of the % effect versus concentration were generated with Graphpad Prism 5 and EC50 values were calculated using a four-parameter nonlinear regression model.
Select PDE5 clones from both experiment 1 and experiment 2 were directly compared. […] The stabilization ratio was calculated as the fold change in GFP intensity in ligand treated samples compared to treatment with DMSO (i.e. in the absence of ligand) with the same construct.

hPDE5 mutants [2] = molecular target: T1, hPDE5 mutants; experiment: GFP MFI by FACS in HCT116 cells transduced with hPDE5 constructs; assay type: cell-based
Experimental: (§1) Desirable qualities of a DD include, low expression of the SRE in the absence of ligand and ligand dependent stabilization of the SRE. Constructs were generated using DDs linked to GFP using an SG linker. […] The mean fluorescence intensity (MFI) of GFP was analyzed by FACS. […] Destabilizing mutation coefficient less than 1 are desirable.
(§2) Mean fluorescence intensity (MFI) was measured by FACS. […] Destabilizing mutation coefficient ratios less than 1 are desirable.
(§3) Mean fluorescence intensity (MFI) was measured by FACS. […] Destabilizing mutation co-efficient ratios less than 1 are desirable.
(§4) Mean fluorescence intensity (MFI) was measured by FACS. […] Destabilizing mutation coefficient less than 1 are desirable.
as §4
(§5) Mean fluorescence intensity (MFI) of GFP was measured by FACS.
(§6) Mean fluorescence intensity (MFI) was measured by FACS.
(§7) The media containing the ligand was removed and fresh media without the ligand was added.
(§8) The properties of the DDs were analyzed in the presence and absence of ligands via FACS as previously described.
(§9) GFP fluorescence was measured by FACS.
(§10) The properties of the DDs were analyzed via FACS both in the presence and absence of ligands.
as §9

hPDE5 mutants [3] = experiment: as above; assay type: cell-based, human
Experimental: as §1, §2, §3, §4, §4, §5, §6, §7, §8, §9, §10, §9

[4] = Off-kinetics, time 50 hrs (ligand removed at 48 h)
[5] = Off-kinetics, time 52 hrs (ligand removed at 48 h)
[6] = Off-kinetics, time 54 hrs (ligand removed at 48 h)
[7] = Off-kinetics, time 56 hrs (ligand removed at 48 h)
[8] = Off-kinetics, time 60 hrs (ligand removed at 48 h)
[9] = Off-kinetics, time 72 hrs (ligand removed at 48 h)
[10] = Off-kinetics, time 80 hrs (ligand removed at 48 h)
[11] = Off-kinetics, time 96 hrs (ligand removed at 48 h)

## LibC000002: hPDE5 (Amino acid 535-860 of WT, I700F, E796G), DD generated by random mutagenesis
hPDE5 mutants [1]
  Stabilization ratio: 3.2
  Destabilizing mutation co-efficient: 0.05
  MFI 10 μM VDF: 981
  MFI DMSO: 309

## LibC000003: hPDE5 (Amino acid 535-860 of WT, D724G, K848N), DD generated by random mutagenesis
hPDE5 mutants [1]
  Stabilization ratio: 2.9
  Destabilizing mutation co-efficient: 0.11
  MFI 10 μM VDF: 1870
  MFI DMSO: 656

## LibC000007: hPDE5 (Amino acid 535-860 of WT, H613L, D724Y, F755Y), DD generated by random mutagenesis
hPDE5 mutants [1]
  Stabilization ratio: 1.0
  Destabilizing mutation co-efficient: 0.04
  MFI 10 μM VDF: 234
  MFI DMSO: 234

## LibC000010: hPDE5 (Amino acid 535-860 of WT, R658H), DD generated by random mutagenesis
hPDE5 mutants [1]
  Stabilization ratio: 2.1
  Destabilizing mutation co-efficient: 1.17
  MFI 10 μM VDF: 13940
  MFI DMSO: 6713

## LibC000011: hPDE5 (Amino acid 535-860 of WT, S562G, L727P, R847T), DD generated by random mutagenesis
hPDE5 mutants [1]
  Stabilization ratio: 1.2
  Destabilizing mutation co-efficient: 0.01
  MFI 10 μM VDF: 67
  MFI DMSO: 57

## LibC000014: hPDE5 (Amino acid 535-860 of WT, A767E), DD generated by random mutagenesis
hPDE5 mutants [1]
  Stabilization ratio: 2.8
  Destabilizing mutation co-efficient: 0.44
  MFI 10 μM VDF: 6998
  MFI DMSO: 2500

## LibC000016: hPDE5 (Amino acid 535-860 of WT, Q743L), DD generated by random mutagenesis
hPDE5 mutants [1]
  Stabilization ratio: 2.4
  Destabilizing mutation co-efficient: 0.51
  MFI 10 μM VDF: 6869
  MFI DMSO: 2895

## LibC000017: hPDE5 (Amino acid 535-860 of WT, Y709H, F787V), DD generated by random mutagenesis
hPDE5 mutants [1]
  Stabilization ratio: 2.9
  Destabilizing mutation co-efficient: 0.39
  MFI 10 μM VDF: 6530
  MFI DMSO: 2244

## LibC000018: hPDE5 (Amino acid 535-860 of WT, N605Y, I715K), DD generated by random mutagenesis
hPDE5 mutants [1]
  Stabilization ratio: 3.0
  Destabilizing mutation co-efficient: 0.18
  MFI 10 μM VDF: 3102
  MFI DMSO: 1038

## LibC000019: hPDE5 (Amino acid 535-860 of WT, F564I, N662Y, H685L, L693P, F736I), DD generated by random mutagenesis
hPDE5 mutants [1]
  Stabilization ratio: 0.9
  Destabilizing mutation co-efficient: 0.06
  MFI 10 μM VDF: 285
  MFI DMSO: 320

## LibC000021: hPDE5 (Amino acid 535-860 of WT, V594I), DD generated by random mutagenesis
hPDE5 mutants [1]
  Stabilization ratio: 2.6
  Destabilizing mutation co-efficient: 0.30
  MFI 10 μM VDF: 4440
  MFI DMSO: 1732

## LibC000023: hPDE5 (Amino acid 535-860 of WT, E858V), DD generated by random mutagenesis
hPDE5 mutants [1]
  Stabilization ratio: 1.4
  Destabilizing mutation co-efficient: 0.77
  MFI 10 μM VDF: 6121
  MFI DMSO: 4386

## LibC000024: hPDE5 (Amino acid 535-860 of WT, T784I), DD generated by random mutagenesis
hPDE5 mutants [1]
  Stabilization ratio: 1.4
  Destabilizing mutation co-efficient: 0.88
  MFI 10 μM VDF: 6905
  MFI DMSO: 5039

## OT-001186: hPDE5 R732G AcGFP construct
hPDE5 mutants [2]; hotspot constructs, HCT116
  GFP by FACS, Sildenafil 10 μM: 288
  GFP by FACS, Vardenafil 1 μM: 854
hPDE5 mutants [3]; hotspot constructs, HCT116, DMSO control of Sildenafil
  GFP by FACS, Sildenafil 0 μM (DMSO): 298
hPDE5 mutants [3]; hotspot constructs, HCT116, DMSO control of Vardenafil
  GFP by FACS, Vardenafil 0 μM (DMSO): 176

## OT-001216: hPDE5 wildtype construct linked to GFP
hPDE5 mutants [2]; 10 μM, 48 h, HCT-116
  Sildenafil Stabilization ratio: 1.03
  Vardenafil Stabilization ratio: 1.04
hPDE5 mutants [2]; GFP, 10 μM Sildenafil 48 h, HCT-116
  MFI Sildenafil: 66860
hPDE5 mutants [2]; GFP, 10 μM Vardenafil 48 h, HCT-116
  MFI Vardenafil: 67388
hPDE5 mutants [3]; GFP, DMSO 48 h, HCT-116
  MFI DMSO: 64942
hPDE5 mutants [3]; Off-kinetics, time 48 hrs (after 48 h ligand treatment)
  Stabilization ratio: 2.24
hPDE5 mutants [3]; Off-kinetics, time 48 hrs (after 48 h ligand treatment), HCT 116
  MFI: 102137
hPDE5 mutants [3]; [4]
  MFI: 97225
  Stabilization ratio: 2.14
hPDE5 mutants [3]; [5]
  MFI: 96264
  Stabilization ratio: 2.12
hPDE5 mutants [3]; [6]
  MFI: 95410
  Stabilization ratio: 2.10
hPDE5 mutants [3]; [7]
  MFI: 81733
  Stabilization ratio: 1.80
hPDE5 mutants [3]; [8]
  MFI: 84323
  Stabilization ratio: 1.85
hPDE5 mutants [3]; [9]
  MFI: 70151
  Stabilization ratio: 1.54
hPDE5 mutants [3]; [10]
  MFI: 63208
  Stabilization ratio: 1.39
hPDE5 mutants [3]; [11]
  MFI: 55918
  Stabilization ratio: 1.23
hPDE5 mutants [3]; Sildenafil 30 μM, 24 h, HCT116
  MFI: 75478
  Stabilization ratio: 1.22
hPDE5 mutants [3]; Tadalafil 100 μM, 24 h, HCT116
  MFI: 58468
  Stabilization ratio: 1.60
hPDE5 mutants [3]; Vardenafil 30 μM, 24 h, HCT116
  MFI: 70898
  Stabilization ratio: 1.14

Reference: patent US20220403001A1, “PDE5 DERIVED REGULATORY CONSTRUCTS AND METHODS OF USE IN IMMUNOTHERAPY” (Obsidian Therapeutics, Inc., priority 2018, published 2022)
